Values quoted from earlier work in patent US7410776B2, “Polypeptides, their production and use” (Takeda Pharmaceutical Company Limited, priority 1997, dated 2008).

Molecular target: T1, APJ (Homo sapiens, UniProt P35414)
T1 construct: host or cells: CHO cells
T1 sequence (P35414 1-380): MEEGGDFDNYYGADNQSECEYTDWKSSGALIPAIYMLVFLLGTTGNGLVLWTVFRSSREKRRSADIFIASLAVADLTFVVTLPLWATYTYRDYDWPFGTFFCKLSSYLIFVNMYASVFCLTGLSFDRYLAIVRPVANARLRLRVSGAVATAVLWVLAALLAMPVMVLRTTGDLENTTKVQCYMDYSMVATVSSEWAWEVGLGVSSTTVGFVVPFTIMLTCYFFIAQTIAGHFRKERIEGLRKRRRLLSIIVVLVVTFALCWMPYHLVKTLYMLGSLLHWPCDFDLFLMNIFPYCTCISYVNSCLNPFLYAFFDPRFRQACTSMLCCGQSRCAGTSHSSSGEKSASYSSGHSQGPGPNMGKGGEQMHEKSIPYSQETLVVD
Conditions: APJ expressed in CHO cells

angiotensin II (DRVYIHPF; Angiotensin-2; UniProt P01019 25-32, looked up) [known peptide tested on APJ expressed in CHO cells]
reaction with APJ: no reaction was detected at all
